Experimental data published in patent US20030143209A1 (AVENTIS PHARMA S A, published 2003).

Molecular target: T1, CAR (Coxsackie and adenoviruses receptor) (human, UniProt P78310 20-365)
T1 sequence: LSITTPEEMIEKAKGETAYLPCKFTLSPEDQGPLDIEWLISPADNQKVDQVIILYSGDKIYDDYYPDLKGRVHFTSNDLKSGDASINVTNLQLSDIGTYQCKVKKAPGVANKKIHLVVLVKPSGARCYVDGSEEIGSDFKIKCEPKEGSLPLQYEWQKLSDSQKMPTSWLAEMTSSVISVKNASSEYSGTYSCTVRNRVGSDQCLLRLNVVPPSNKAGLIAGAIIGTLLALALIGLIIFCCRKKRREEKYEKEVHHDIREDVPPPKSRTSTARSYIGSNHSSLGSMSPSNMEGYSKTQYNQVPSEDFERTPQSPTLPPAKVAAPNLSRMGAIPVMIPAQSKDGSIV
Assay: cell-based or functional assay

B1: vBS1: Ad5 virus with short-shafted fiber from Ad5 (deletion encompassing shaft repeats 4-16) (other)
chain: MKRARPSEDTFNPVYPYDTETGPPTVPFLTPPFVSPNGFQESPPGVLSLRLSEPLVTSNGMLALKMGNGLSLDEAGNLTSQNVTTVSPPLKKTKSNLDINYNKGLYLFTASNNSKKLEVNLSTAKGLMFDATAIAINAGDGLEFGSPNAPNTNPLKTKIGHGLEFDSNKAMVPKLGTGLSFDSTGAITVGNKNNDKLTLWTTPAPSPNCRLNAEKDAKLTLVLTKCGSQILATVSVLAVKGSLAPISGTVQSAHLIIRFDENGVLLNNSFLDPEYWNFRNGDLTEGTAYTNAVGFMPNLSAYPKSHGKTAKSNIVSQVYLNGDKTKPVTLTITLNGTQETGDTTPSAYSMSFSWDWSGHNYINEIFATSSYTFSYIAQE
With B1 the “cell transduction of 293 cells (specific lacZ expression, moi 50 VP/cell)” value was 10 fold.
